Publication PMC7661507
Each block holds one substance with its values, some of them ahead of it.

Columns and labels:
[1] = biological target: H1 V104C/G194C labeled with Alexa Fluor 488/594 (human); assay: single-molecule FRET; freely diffusing molecules; labeled protein titrated with the unlabeled partner (labeled ProTα with unlabeled H1, labeled H1 with unlabeled ProTα); TBS, 208 mM ionic strength
[2] = biological target: recombinant wild-type human histone H1.0 (unlabeled) (human); assay: single-molecule FRET; competition titration, freely diffusing molecules; constant 50 pM labeled ProTα and unlabeled H1 (1 to 50 nM), unlabeled ProTα varied; TBS, 165 mM ionic strength
Sequence of recombinant wild-type human histone H1.0 (unlabeled) (human) (P07305 2-194): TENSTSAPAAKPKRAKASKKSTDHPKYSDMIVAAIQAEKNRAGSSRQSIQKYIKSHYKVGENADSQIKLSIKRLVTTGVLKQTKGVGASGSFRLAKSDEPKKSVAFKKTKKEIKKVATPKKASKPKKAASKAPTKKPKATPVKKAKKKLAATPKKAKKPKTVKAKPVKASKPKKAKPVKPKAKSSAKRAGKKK

[3] = biological target: recombinant wild-type human histone H1.0 (unlabeled) (human); assay: single-molecule FRET; competition titration, freely diffusing molecules; constant 50 pM labeled ProTα and unlabeled H1 (1 to 50 nM), unlabeled ProTα varied; TBS, 230 mM ionic strength
[4] = biological target: ProTα E55C/D109C labeled with Alexa Fluor 488/594 (human); assay: single-molecule FRET; freely diffusing molecules; labeled protein titrated with the unlabeled partner (labeled ProTα with unlabeled H1, labeled H1 with unlabeled ProTα); TBS, 208 mM ionic strength
[5] = biological target: ProTα S1C/D109C labeled with Alexa Fluor 488/594 (human); assay: as above
[6] = biological target: ProTα E56C/D110C labeled with Atto 550/647N (human); assay: as above
[7] = biological target: ProTα S1C/E55C labeled with Alexa Fluor 488/594 (human); assay: as above
[8] = biological target: ProTα S1C/D110C labeled with Alexa Fluor 488/594 (human); assay: as above
[9] = biological target: ProTα E56C/D110C labeled with Cy3B/Abberior STAR635 (human); assay: as above
[10] = biological target: ProTα E56C/D110C labeled with Alexa Fluor 488/594 (human); assay: as above
[11] = biological target: 1:1 complex of ProTα E56C/D110C Alexa488/594 and unlabeled H1 (human); assay: single-molecule FRET; freely diffusing molecules; unlabeled H1 titrated to 50 pM labeled ProTα fully saturated with unlabeled H1 (PH + H ⇌ PHH); TBS, 58 mM ionic strength
[12] = biological target: 1:1 complex of ProTα E56C/D110C Alexa488/594 and unlabeled H1 (human); assay: single-molecule FRET; freely diffusing molecules; unlabeled H1 titrated to 50 pM labeled ProTα fully saturated with unlabeled H1 (PH + H ⇌ PHH); TBS, 8 mM ionic strength
[13] = biological target: 1:1 complex of ProTα E56C/D110C Alexa488/594 and unlabeled H1 (human); assay: single-molecule FRET; freely diffusing molecules; unlabeled H1 titrated to 50 pM labeled ProTα fully saturated with unlabeled H1 (PH + H ⇌ PHH); TBS, 43 mM ionic strength
[14] = biological target: Avi-ProTα E56C/D110C, biotinylated, labeled with Cy3B/LD650 (human); assay: single-molecule FRET; biotinylated Avi-ProTα immobilised on a PEG/neutravidin surface, unlabeled H1 in solution; two-state model of time traces; TBS in D2O, 230 mM ionic strength
[15] = biological target: Avi-ProTα E56C/D110C, biotinylated, labeled with Cy3B/LD650 (human); assay: as above; remark: listed apart in the source
[16] = biological target: 1:1 complex of ProTα E56C/D110C Alexa488/594 and unlabeled H1 (human); assay: single-molecule FRET; freely diffusing molecules; unlabeled H1 titrated to 50 pM labeled ProTα fully saturated with unlabeled H1 (PH + H ⇌ PHH); TBS, 33 mM ionic strength
[17] = biological target: ProTα E56C/D110C labeled with Alexa Fluor 488/594 (human); assay: single-molecule FRET; freely diffusing molecules; 50 pM labeled ProTα titrated with unlabeled H1; TBS, 340 mM ionic strength
[18] = biological target: 1:1 complex of ProTα E56C/D110C Alexa488/594 and unlabeled H1 (human); assay: single-molecule FRET; rate coefficient of PH + H ⇌ PHH at 200 mM ionic strength; KD extrapolated from lower ionic strengths, kon^PHH assumed equal to kon^PPH
[19] = biological target: 1:1 complex of ProTα E56C/D110C Alexa488/594 and unlabeled H1 (human); assay: single-molecule FRET; freely diffusing molecules; unlabeled H1 titrated to 50 pM labeled ProTα fully saturated with unlabeled H1 (PH + H ⇌ PHH); TBS, 83 mM ionic strength
[20] = biological target: ProTα E56C/D110C labeled with Alexa Fluor 488/594 (human); assay: single-molecule FRET; freely diffusing molecules; 50 pM labeled ProTα titrated with unlabeled H1; TBS (10 mM Tris, 0.1 mM EDTA, KCl), 140 mM β-mercaptoethanol, 0.01% Tween 20; 165 mM ionic strength
[21] = biological target: ProTα E56C/D110C labeled with Alexa Fluor 488/594 (human); assay: single-molecule FRET; freely diffusing molecules; 50 pM labeled ProTα titrated with unlabeled H1; TBS, 330 mM ionic strength
[22] = biological target: 1:1 complex of ProTα E56C/D110C Alexa488/594 and unlabeled H1 (human); assay: single-molecule FRET; freely diffusing molecules; unlabeled H1 titrated to 50 pM labeled ProTα fully saturated with unlabeled H1 (PH + H ⇌ PHH); TBS, 13 mM ionic strength
[23] = biological target: ProTα E56C/D110C labeled with Alexa Fluor 488/594 (human); assay: stopped-flow fluorescence; 2 nM labeled ProTα mixed with different concentrations of H1; TBS, 165 mM ionic strength; fit with kex = kon cH + KD kon
[24] = biological target: 1:1 complex of ProTα E56C/D110C Alexa488/594 and unlabeled H1 (human); assay: single-molecule FRET; freely diffusing molecules; unlabeled H1 titrated to 50 pM labeled ProTα fully saturated with unlabeled H1 (PH + H ⇌ PHH); TBS, 23 mM ionic strength
[25] = biological target: ProTα E56C/D110C labeled with Alexa Fluor 488/594 (human); assay: single-molecule FRET; freely diffusing molecules; 50 pM labeled ProTα titrated with unlabeled H1; TBS, 240 mM ionic strength
[26] = biological target: 1:1 complex of ProTα E56C/D110C Alexa488/594 and unlabeled H1 (human); assay: single-molecule FRET; freely diffusing molecules; unlabeled H1 titrated to 50 pM labeled ProTα fully saturated with unlabeled H1 (PH + H ⇌ PHH); TBS, 18 mM ionic strength
[27] = biological target: ProTα E56C/D110C labeled with Alexa Fluor 488/594 (human); assay: single-molecule FRET; freely diffusing molecules; 50 pM labeled ProTα titrated with unlabeled H1; TBS, 180 mM ionic strength
[28] = biological target: Avi-ProTα E56C/D110C, biotinylated, labeled with Cy3B/LD650 (human); assay: single-molecule FRET; freely diffusing molecules; 50 pM labeled ProTα titrated with unlabeled H1; TBS, 200 mM ionic strength
[29] = biological target: ProTα E55C/D109C labeled with Alexa Fluor 488/594 (human); assay: as above
[30] = biological target: Avi-ProTα E56C/D110C, biotinylated, labeled with Cy3B/LD650 (human); assay: single-molecule FRET; biotinylated Avi-ProTα immobilised on a PEG/neutravidin surface, unlabeled H1 in solution; two-state model of time traces; TBS in D2O, 275 mM ionic strength
[31] = biological target: Avi-ProTα E56C/D110C, biotinylated, labeled with Cy3B/LD650 (human); assay: as above; remark: listed apart in the source
[32] = biological target: ProTα E56C/D110C labeled with Alexa Fluor 488/594 (human); assay: single-molecule FRET; freely diffusing molecules; 50 pM labeled ProTα titrated with unlabeled H1; TBS, 290 mM ionic strength

Sequence of recombinant wild-type human histone H1.0 (unlabeled) (natural protein) (P07305 2-194): as above

Kd [1]: 3.5 nM
Kd [2]: 0.0058 nM
Kd [3]: 6.5 nM
Substance: ProTα (unlabeled & NMR) (natural protein)

Kd [4]: 1.3 nM
Kd [5]: 2.3 nM
Kd [6]: 3.1 nM
Kd [7]: 1.3 nM
Kd [8]: 2 nM
Kd [9]: 1 nM
Kd [10]: 1 nM
Kd [11]: 2800 nM
Kd [12]: 200 nM
Kd [13]: 1800 nM
Kd [14]: 2 nM
koff [14]: 2.8 s⁻¹
kon [14]: 3.1e+09 M⁻¹ s⁻¹
kon [15]: 1.4e+09 M⁻¹ s⁻¹
Kd [16]: 1310 nM
Kd [17]: 4000 nM
koff [18]: 6000 s⁻¹
Kd [19]: 4100 nM
Kd [20]: 0.0021 nM
Kd [21]: 1400 nM
Kd [22]: 540 nM
koff [23]: 0.006 s⁻¹
kon [23]: 3.5e+09 M⁻¹ s⁻¹
Kd [24]: 540 nM
Kd [25]: 25 nM
Kd [26]: 710 nM
Kd [27]: 0.037 nM
Kd [28]: 1.12 nM
Kd [29]: 0.51 nM
kon [30]: 1.01e+09 M⁻¹ s⁻¹
Kd [31]: 59 nM
koff [31]: 59 s⁻¹
kon [31]: 3.1e+09 M⁻¹ s⁻¹
Kd [32]: 230 nM
Substance: recombinant wild-type human histone H1.0 (unlabeled) (natural protein)
